Experimental data published in patent publication US6395306 (PAN PACIFIC PHARMACEUTICALS, dated 2002).

Molecular target: T1, CXCR2 (human, UniProt P25025 1-360)
T1 sequence: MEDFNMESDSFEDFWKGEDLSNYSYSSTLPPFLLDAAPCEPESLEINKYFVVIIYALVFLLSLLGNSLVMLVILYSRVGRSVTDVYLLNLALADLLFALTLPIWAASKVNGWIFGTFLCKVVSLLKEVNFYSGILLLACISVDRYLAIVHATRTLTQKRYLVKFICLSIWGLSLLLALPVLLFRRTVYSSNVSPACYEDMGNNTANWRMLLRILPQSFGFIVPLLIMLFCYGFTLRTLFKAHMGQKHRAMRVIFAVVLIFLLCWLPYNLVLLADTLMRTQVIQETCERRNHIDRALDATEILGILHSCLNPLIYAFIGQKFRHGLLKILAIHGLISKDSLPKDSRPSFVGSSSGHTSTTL

B1: PX3.101 protein purified from honeybee venom (other)
chain: GGFGGFGGFGGLGGRGKCPSNEIFSRCDGRCQRFCPNVVPKPLCIKICAPGCVCRLGYLRNKKKVCVPRSKCG
B1 showed an IC50 of 500 nM.
